What was measured:
soluble CAR D12 = soluble CAR D12 (chicken); experiment: SPR
soluble CAR D1 domain = soluble CAR D1 domain (chicken); experiment: SPR

B1: CELO fiber1 knob (domain or fragment)
chain: GSSTPEVATYHCGDNLLESYDIFASLPNTNAAKVAAYCRLAAAGGVVSGTIQVTSYAGRWPKVGNSVTDGIKFAIVVSPPMDKDPRSNLSQWLGATVFPAGATTALFSPNPYGSLNTITTLPSIASDWYVPESNLVTYTKIHFKPTGSQQLQLASGELVVAAAKSPVQTTKYELIYLGFTLKQNSSGTNFFDPNASSDLSFLTPPIPFTYLGYYQ
Kd (soluble CAR D12): 115 nM
Kd (soluble CAR D1 domain): 420 nM
